The source of these data is PMC4022456, “Phosphorylation of a WRKY Transcription Factor by MAPKs Is Required for Pollen Development and Function in Arabidopsis”.

The series has as its target WRKY34 (WT) (Arabidopsis thaliana, UniProt O65590 1-568). Nature of the series: EMSA; competed by 250-fold unlabeled W-box tested; 20 mM HEPES pH 7.9, 50 mM KCl, 0.5 mM DTT, 0.1 mM EDTA, 0.1 ug/uL herring sperm DNA, room temperature 30 min; 1 ug protein, 2 pmol probe; 5% native PAGE, 0.5x TBE. The settings on record: protein: recombinant; label: 32P 5' end; blunt.

WRKY34 (WT), sequence (O65590 whole entry): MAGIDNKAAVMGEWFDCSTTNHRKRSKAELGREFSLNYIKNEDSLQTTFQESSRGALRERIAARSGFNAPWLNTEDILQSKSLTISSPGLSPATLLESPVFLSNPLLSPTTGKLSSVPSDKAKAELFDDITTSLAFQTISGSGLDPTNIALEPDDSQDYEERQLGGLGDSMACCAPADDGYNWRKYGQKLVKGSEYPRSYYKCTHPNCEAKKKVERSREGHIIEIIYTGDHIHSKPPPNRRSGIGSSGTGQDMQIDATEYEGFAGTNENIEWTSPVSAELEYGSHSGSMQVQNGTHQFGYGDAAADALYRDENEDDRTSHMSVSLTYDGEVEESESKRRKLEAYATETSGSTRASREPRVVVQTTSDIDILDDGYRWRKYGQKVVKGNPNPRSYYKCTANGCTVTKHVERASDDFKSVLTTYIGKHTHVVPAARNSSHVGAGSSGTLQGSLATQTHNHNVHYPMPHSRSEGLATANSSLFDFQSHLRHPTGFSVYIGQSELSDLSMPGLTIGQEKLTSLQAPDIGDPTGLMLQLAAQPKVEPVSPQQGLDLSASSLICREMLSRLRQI

B1: W-box probe (three W boxes) (dsDNA)
DNA 1: CGTTGACCGTTGACCGAGTTGACTTTTTA
DNA 2: TAAAAAGTCAACTCGGTCAACGGTCAACG
On to B1, for which the binding result is on record as “binds”.
